Here are results for two molecules from patent US20260015426A1 (23ANDME, published 2026).

Assay [1] has as its target T1, human IL1RAP (hu-IL1RAP) on human cells (human, UniProt Q9NPH3 21-570).
T1 sequence: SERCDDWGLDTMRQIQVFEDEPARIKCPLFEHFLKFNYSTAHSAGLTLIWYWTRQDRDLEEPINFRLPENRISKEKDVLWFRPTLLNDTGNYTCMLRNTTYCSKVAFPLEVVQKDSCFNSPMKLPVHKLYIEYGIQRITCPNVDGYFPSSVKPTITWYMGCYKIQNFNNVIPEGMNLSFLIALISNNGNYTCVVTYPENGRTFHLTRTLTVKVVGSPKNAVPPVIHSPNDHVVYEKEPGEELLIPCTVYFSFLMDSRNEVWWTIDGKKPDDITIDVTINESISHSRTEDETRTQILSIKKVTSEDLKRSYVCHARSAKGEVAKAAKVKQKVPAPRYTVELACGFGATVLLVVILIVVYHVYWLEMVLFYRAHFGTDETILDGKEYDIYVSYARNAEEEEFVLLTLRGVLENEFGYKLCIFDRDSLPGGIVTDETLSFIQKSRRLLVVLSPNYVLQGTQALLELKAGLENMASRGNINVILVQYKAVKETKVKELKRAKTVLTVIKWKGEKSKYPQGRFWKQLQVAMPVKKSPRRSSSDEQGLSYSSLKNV
Kind of assay: cell-based or functional assay.

Assay [2] deals with T2, hu-M-IL1RAP construct, positions S21-T367 (extracellular domain of the membrane form of human IL1RAP) (human, UniProt Q9NPH3 21-367).
T2 construct: Biotinylated when captured on the Biacore chip
T2 sequence: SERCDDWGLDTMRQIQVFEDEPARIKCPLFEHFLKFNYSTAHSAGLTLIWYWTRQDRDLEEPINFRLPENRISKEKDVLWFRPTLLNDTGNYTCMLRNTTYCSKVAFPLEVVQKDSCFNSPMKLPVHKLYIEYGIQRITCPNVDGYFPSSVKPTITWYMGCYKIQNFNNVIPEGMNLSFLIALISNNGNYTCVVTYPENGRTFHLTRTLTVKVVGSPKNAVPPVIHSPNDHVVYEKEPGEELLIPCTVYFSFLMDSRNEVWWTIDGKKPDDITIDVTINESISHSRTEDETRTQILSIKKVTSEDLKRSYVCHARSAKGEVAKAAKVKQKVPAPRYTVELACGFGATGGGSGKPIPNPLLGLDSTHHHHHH
Kind of assay: ELISA, hybridoma supernatant. On the technique in general: An ELISA detects its analyte on a solid surface through an enzyme-linked reagent.
Experimental: (§1) After removing the coating solution, unspecific binding was blocked by adding 200 μL of assay/blocking solution containing 1% bovine serum albumin (BSA) in phosphate buffered saline (PBS) pH 7.4 (ELISA diluent) and incubation at room temperature for one hour with agitation or overnight at 4° C. without agitation. Plates were then washed three times with 300 μL of PBS, 0.05% TWEEN®-20 (wash buffer). 100 μL of culture supernatant from individual hybridoma clones (or purified antibodies at the indicated concentration) was added to individual wells followed by incubation at room temperature for one hour with agitation. […] The plate was incubated at room temperature for one hour with agitation, washed six times with wash buffer and developed for 3-10 minutes by adding 50 μL/well of tetramethylbenzidine (TMB) microwell peroxidase substrate (Scytek Laboratories, Inc., Logan, UT, USA; catalogue number TM1999).

Assay [3] deals with T1, human IL1RAP (hu-IL1RAP) on human cells. Kind of assay: cell-based or functional assay. The source holds these as a separate data set.
The target in assay [4] is T3, mu-M-IL1RAP construct, positions S21-T367 (mouse, UniProt Q61730 21-367).
T3 construct: also called mo-M-IL1RAP; mouse-M-IL1RAP
T3 sequence: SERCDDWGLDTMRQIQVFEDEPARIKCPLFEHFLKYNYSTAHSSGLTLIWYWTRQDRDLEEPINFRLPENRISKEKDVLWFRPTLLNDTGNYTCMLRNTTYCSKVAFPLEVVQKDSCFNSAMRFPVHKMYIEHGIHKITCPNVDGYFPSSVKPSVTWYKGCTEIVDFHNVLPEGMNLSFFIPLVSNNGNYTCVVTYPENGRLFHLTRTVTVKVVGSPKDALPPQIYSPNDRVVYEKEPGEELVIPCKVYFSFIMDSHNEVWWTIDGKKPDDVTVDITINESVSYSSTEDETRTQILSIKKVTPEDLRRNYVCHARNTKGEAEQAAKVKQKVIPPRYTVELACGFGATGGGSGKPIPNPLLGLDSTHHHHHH
Kind of assay: ELISA, purified mAb.
Experimental: as §1

Assay [5] addresses T2, hu-M-IL1RAP construct, positions …. Kind of assay: ELISA, purified mAb.
Experimental: as §1
Assay [6] deals with T4, hu-S-IL1RAP construct, positions S21-Q356 (soluble human IL1RAP) (human, UniProt Q9NPH3 21-350).
T4 sequence: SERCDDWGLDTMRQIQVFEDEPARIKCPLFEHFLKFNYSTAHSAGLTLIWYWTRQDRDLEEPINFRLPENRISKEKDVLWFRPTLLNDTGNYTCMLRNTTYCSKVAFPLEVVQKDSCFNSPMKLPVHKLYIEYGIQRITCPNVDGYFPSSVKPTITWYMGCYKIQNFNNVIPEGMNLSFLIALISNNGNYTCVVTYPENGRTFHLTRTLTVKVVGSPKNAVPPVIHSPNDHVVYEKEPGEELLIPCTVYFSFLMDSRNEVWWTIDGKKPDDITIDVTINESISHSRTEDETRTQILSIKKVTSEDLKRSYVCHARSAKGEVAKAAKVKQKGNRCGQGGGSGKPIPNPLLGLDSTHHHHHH
Kind of assay: ELISA, purified mAb.
Experimental: as §1

Assay [7] has as its target T5, cyno-M-IL1RAP construct, positions S21-T367 (cynomolgus monkey, UniProt P59822 21-367 (rhesus entry)).
T5 construct: Biotinylated when captured on the Biacore chip; also called cy-M-IL1RAP
T5 sequence: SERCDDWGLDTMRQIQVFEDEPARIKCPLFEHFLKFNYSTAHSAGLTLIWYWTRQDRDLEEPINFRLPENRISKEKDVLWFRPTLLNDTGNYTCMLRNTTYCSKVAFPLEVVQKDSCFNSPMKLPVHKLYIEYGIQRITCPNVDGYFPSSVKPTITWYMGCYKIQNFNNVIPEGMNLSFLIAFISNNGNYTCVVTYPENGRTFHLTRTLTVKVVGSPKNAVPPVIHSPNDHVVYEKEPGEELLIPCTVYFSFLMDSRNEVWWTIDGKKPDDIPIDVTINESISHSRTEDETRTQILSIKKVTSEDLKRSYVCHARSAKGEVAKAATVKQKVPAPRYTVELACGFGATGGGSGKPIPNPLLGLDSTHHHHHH
Kind of assay: ELISA, purified mAb.
Experimental: as §1

Assay [8] addresses T2, hu-M-IL1RAP construct, positions …. Kind of assay: ELISA, mAb at 10 nM.
Experimental: as §1
(§2) Binding domain mapping: Binding domain mapping of the 15 purified antibodies was carried out using the above-described ELISA assay with the following IL1RAP polypeptide constructs coated at 1 μg/ml on the assay plates: hu-M-IL1RAP, hu-M-IL1RAP-D1, hu-M-IL1RAP-D1D2, and hu-M-IL1RAP-D3.
Assay [9] addresses T6, hu-M-IL1RAP-D1D2 construct, positions S21-P237 (human).
T6 chain: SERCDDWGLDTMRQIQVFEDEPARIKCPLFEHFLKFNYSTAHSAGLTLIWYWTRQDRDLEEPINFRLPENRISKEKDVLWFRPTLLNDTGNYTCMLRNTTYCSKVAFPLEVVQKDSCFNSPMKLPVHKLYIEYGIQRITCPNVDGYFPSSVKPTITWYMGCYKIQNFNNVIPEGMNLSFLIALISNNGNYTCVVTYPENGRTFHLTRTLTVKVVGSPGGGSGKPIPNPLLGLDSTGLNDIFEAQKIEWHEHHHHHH
Kind of assay: ELISA, mAb at 10 nM.
Experimental: as §1, §2

For assay [10], the target named is T2, hu-M-IL1RAP construct, positions …. Kind of assay: SPR, Fab analyte.
Experimental: (§3) Surface plasmon resonance (SPR) analysis was used to determine binding affinity for hu-M-IL1RAP of the purified Fabs containing the selected single, double, and triple mutations in either the VL or VH regions using a BIACORE™ 8K instrument. […] For kinetics measurements, 5 nM biotinylated hu-M-IL1RAP was captured at 10 μL/min to achieve ˜50 response units in the second flow cell (FC2). FC1 was kept as a reference. […] The sensorgrams were recorded and subjected to reference and buffer subtraction before data analysis with the BIACORE® 8K Evaluation Software (version 1.1.1.7442). Association rates (kₒₙ) and dissociation rates (koff) were calculated using a simple one-to-one Langmuir binding model. The equilibrium dissociation constant (KD) was calculated as the ratio of koff/kₒₙ.
For assay [11] the target is unchanged. Kind of assay: SPR, Fab analyte, 25 C. In general terms: In SPR one partner is held on a chip, and binding of the other changes the refractive index at the surface.
Experimental: as §3
For assay [12] the target is unchanged. Kind of assay: SPR, Fab analyte, 37 C.
In assay [13] the target is T1, human IL1RAP (hu-IL1RAP) on human cells. Kind of assay: cell-based or functional assay. The source holds these as a separate data set.

B1: 8H1 (purified mAb from hybridoma 8H1) (antibody, V domains shown)
VH: QVQLQQSGPELVKSGASVRISCKASGYAFSGSWMNWVKQRPGKGLEWIGRIYPGDGNTNYNGKFKDKATLTADKSSSTAFMQLSSLTSEDSAVYFCARDYYLFYFDYWGQGTTLTVSS
VL: NIVMTQTPKFLPVAAEDRVIITCKASQDVSNEVAWYQQKPGQSPKLLMYYASNRYTGVPDRFTGSGSGTDFTFTISSVQVEDLAVYFCQQHYSSPLTFGAGTKLELK
notes: Mouse hybridoma mAb
For orientation: EC50 means the concentration needed to bring the measured effect to its halfway point. A higher EC50 goes with a need for much substance. For B1, in [1], the “HEK-Blue SEAP, IL-1β, % inhibition (supernatant)” value worked out at 45%. Further, in [1], the “HEK-Blue SEAP, IL-33, % inhibition (supernatant)” value was 26%. In addition, the A450 stood at 0.987 A450 in [2], 1.09 A450 in assay [8] and 0.602 A450 in assay [9]. Moreover, the “HEK-Blue, IL-1β, % inhibition at 100 nM” value in [3] was 64%. For the same molecule, in assay [3], the “HEK-Blue, IL-33, % inhibition at 100 nM” value turned out to be 27%. In addition, the binding result in assay [4] is “no binding (tested: 20 nM (highest tested))”. The EC50 is 0.262 nM in assay [5], 0.186 nM in [6] and 0.257 nM in assay [7].

B2: K13 Fab (VL A51Y/W92I) (Fab, V domains shown)
VH: EVQLVESGGGLVQPGGSLRLSCAASGFTFSNYAMSWVRQAPGKGLEWVATVTEGGDYNYYLDDVKGRFTISRDNAKNSLYLQMNSLRAEDTAVYYCARDRWPYFFDYWGQGTLVTVSS
VL: DIQMTQSPSSLSASVGDRVTITCRASENIYSNLAWYQQKPGKSPKLLVYGYKNLADGVPSRFSGSGSGTDYTLTISSLQPEDFATYYCQHFITTPRTFGGGTKVEIK
notes: Fab with 8xHis tag
As a reminder, the Kd is the constant that tells how readily two partners part at equilibrium. A word on the koff: it is the rate constant with which the complex falls apart. A lower koff goes with a long-lived complex. By kon is commonly meant the second-order rate constant of association. The low end stands for slow association, the high end for fast association. For the molecule B2, the “fold improvement of affinity over the parental Fab” value in assay [10] came out at 9 fold. In assay [11], this molecule returned a Kd of 0.00709 nM, a koff of 4.36e-05 s⁻¹ and a kon of 6.15e+06 M⁻¹ s⁻¹. In [12], this molecule had a Kd of 0.0293 nM, a koff of 0.000117 s⁻¹ and a kon of 4.01e+06 M⁻¹ s⁻¹. In addition, in assay [13], the “HEK-Blue, IL-1β, % inhibition at 100 nM (Fab)” value turned out to be 100%; the “HEK-Blue, IL-1β, IC50 (Fab)” value turned out to be 0.94 nM; the “HEK-Blue, IL-33, % inhibition at 100 nM (Fab)” value came out at 98%; the “HEK-Blue, IL-33, IC50 (Fab)” value was 3.17 nM. In addition, in [13], the “HEK-Blue, IL-36α, % inhibition at 100 nM (Fab)” value is 100% and the “HEK-Blue, IL-36α, IC50 (Fab)” value turned out to be 0.884 nM.
